Target: T1, GLH-1(DQAD) (Caenorhabditis elegans, UniProt P34689 1-763, E500Q)
T1 sequence: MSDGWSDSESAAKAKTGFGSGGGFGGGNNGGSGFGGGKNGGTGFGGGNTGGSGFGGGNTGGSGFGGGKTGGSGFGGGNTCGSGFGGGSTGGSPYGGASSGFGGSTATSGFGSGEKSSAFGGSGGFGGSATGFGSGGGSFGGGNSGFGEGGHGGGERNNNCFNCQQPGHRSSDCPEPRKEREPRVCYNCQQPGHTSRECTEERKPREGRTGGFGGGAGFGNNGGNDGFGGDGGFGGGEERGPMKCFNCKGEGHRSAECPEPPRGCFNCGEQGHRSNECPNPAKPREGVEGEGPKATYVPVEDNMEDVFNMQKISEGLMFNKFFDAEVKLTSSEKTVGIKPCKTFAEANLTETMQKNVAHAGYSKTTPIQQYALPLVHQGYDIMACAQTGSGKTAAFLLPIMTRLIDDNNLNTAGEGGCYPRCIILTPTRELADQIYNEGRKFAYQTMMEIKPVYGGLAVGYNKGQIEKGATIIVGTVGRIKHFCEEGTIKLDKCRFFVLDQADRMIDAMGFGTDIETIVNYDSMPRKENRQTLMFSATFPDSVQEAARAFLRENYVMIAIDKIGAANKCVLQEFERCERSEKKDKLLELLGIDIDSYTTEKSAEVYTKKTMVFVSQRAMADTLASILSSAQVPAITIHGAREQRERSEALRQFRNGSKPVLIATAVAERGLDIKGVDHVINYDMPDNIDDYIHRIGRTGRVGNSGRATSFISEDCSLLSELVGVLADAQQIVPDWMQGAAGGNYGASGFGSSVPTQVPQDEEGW
Assay: EMSA; 2 mM ATP, 2 mM MgCl2; 10 uM protein, 2 uM RNA; strong ATP-dependent binding; 25 mM HEPES pH 7.4, 150 mM NaCl, 2 mM MgCl2, +/- 2 mM ATP, 30 min at RT; native 8% PAGE in TBE, cold room
Settings: protein: recombinant; tags: FLAG; label: 5'-Cy3 (Methods); single strand

B1: 22-nt ssRNA oligo (ssRNA)
RNA: GUCAAAGAUAGCCUUGACCUUG
Q: Does B1 bind?
A: Result: binds
